Target: the molecule itself
Experiment: SEC; Superose 6 10/300 column in PBS/Az, 0.3 ml/min, A280 monitored; self-association (mixture of oligomers)

Protein	binding result
wild type clusterin purified from human plasma (natural protein, glycosylated | glycosylated, clusterin beta-chain, human; joined to the alpha-chain by 5 disulfide bonds; clusterin alpha-chain, human; joined to the beta-chain by 5 disulfide bonds; Disulphide-bonded alpha-beta heterodimer with heterogeneous glycosylation, from pooled donors; also called wtCLU; human plasma clusterin) chain 1: DQTVSDNELQEMSNQGSKYVNKEIQNAVNGVKQIKTLIEKTNEERKTLLSNLEEAKKKKEDALNETRESETKLKELPGVCNETMMALWEECKPCLKQTCMKFYARVCRSGSGLVGRQLEEFLNQSSPFYFWMNGDRIDSLLENDRQQTHMLDVMQDHFSRASSIIDELFQDRFFTREPQDTYHYLPFSLPHRRPHFFFPKSRIVR chain 2: SLMPFSPYEPLNFHAMFQPFLEMIHEAQQAMDIHFHSPAFQHPPTEFIREGDDDRTVCREIRHNSTGCLRMKDQCDKCREILSVDCSTNNPSQAKLRRELDESLQVAERLTRKYNELLKSYQWKMLNTSSLLEQLNEQFNWVSRLANLTQGEDQYYLRVTTVASHTSDSDVPSGVTEVVVKLFDSDPITVTVPVEVSRKNPKFMETVAEKALQEYRKKHREE	binds
mammalian cell-expressed recombinant clusterin secreted by stably transfected HEK293 cells (natural protein, human, glycosylated | glycosylated, clusterin beta-chain, human, from human CLU cDNA in pRcCMV; secreted and cleaved into alpha- and beta-chains; clusterin alpha-chain, human, from human CLU cDNA in pRcCMV; Disulphide-bonded alpha-beta heterodimer, less glycosylated than plasma clusterin; No tag is stated; also called m-rCLU; rCLU) chain 1: DQTVSDNELQEMSNQGSKYVNKEIQNAVNGVKQIKTLIEKTNEERKTLLSNLEEAKKKKEDALNETRESETKLKELPGVCNETMMALWEECKPCLKQTCMKFYARVCRSGSGLVGRQLEEFLNQSSPFYFWMNGDRIDSLLENDRQQTHMLDVMQDHFSRASSIIDELFQDRFFTREPQDTYHYLPFSLPHRRPHFFFPKSRIVR chain 2: SLMPFSPYEPLNFHAMFQPFLEMIHEAQQAMDIHFHSPAFQHPPTEFIREGDDDRTVCREIRHNSTGCLRMKDQCDKCREILSVDCSTNNPSQAKLRRELDESLQVAERLTRKYNELLKSYQWKMLNTSSLLEQLNEQFNWVSRLANLTQGEDQYYLRVTTVASHTSDSDVPSGVTEVVVKLFDSDPITVTVPVEVSRKNPKFMETVAEKALQEYRKKHREE	binds

— publication PMC3900688, “Expression and Purification of Chaperone-Active Recombinant Clusterin” (PLoS ONE, 2014)
